Laboratory results from patent US5512203A, “Cutinase cleaning compositions” (Genencor International, Inc., priority 1994, dated 1996).

What was measured:
Assay type in all cases: biochemical
[1] = Effect of surfactants on hydrolase activity of cutinase; conditions: for Compatibility of surfactant with the cutinase: at the concentrations tested
Description: This example measures the effect of surfactants (detergents) on the hydrolytic activity of cutinase. Specifically, in this example, an aqueous solution was prepared so as to contain 120 nanomoles per liter of cutinase (isolated in a substantially pure form from P. mendocina, ATCC 53552, described in U.S. Ser. No. 932,959 filed Nov. 19, 1986 and incorporated herein by reference); and 0.1 moles/liter of Tris Tris(hydroxymethyl)aminomethane! buffer maintained at pH 8.0 and 25° C. In some cases, surfactant sodium dodecyl sulfate (SDS) and/or Triton X-100™ (octoxynol), available from Rohn & Haas, Philadelphia, Pa.! was then added in the amount specified in Table 4 below. In this example, the enzymatic activity of the cutinase was measured in these solutions using the amount of p-nitrophenol generated from the p-nitrophenylbutyrate substrate as measured by following the absorbance of p-nitrophenol at 410 nm. The enzymatic activity of the cutinase under the above conditions and in the absence of surfactant is arbitrarily assigned a value of 100 percent and enzymatic activity of the other test solutions are reported as a percentage of the standard.

[2] = Stability of cutinase against proteases, hydrolysis of p-nitrophenyl butyrate; conditions: for Cutinase activity after time: pH 10, 37° C.
Description: A. In part A of this example, the cutinase employed was that cutinase isolated in a substantially pure form from P. mendocina, ATCC 53552, described in U.S. Ser. No. 932,959 filed Nov. 19, 1986 and incorporated herein by reference and the protease employed was either Maxacal™ (a substilisin protease available from Gist-Brocade, N.V., Delft, Holland) or Esperase™ (a protease available from Novo Industries, Copenhagen, Denmark).
In this example aqueous test solutions containing 42 μg/ml of cutinase and either 35 μg/ml (Maxacal™) or 64 μg/ml (Esperase™) of protease were prepared. The solutions were buffered to pH 10 with 0.1M sodium phosphate. The solutions were incubated at 37° C. and the enzymatic activity of cutinase was periodically monitored by the hydrolysis of a model cutinase substrate p-nitrophenyl butyrate as measured by the absorbance change at 410 nm in 100 mM Tris buffer containing 0.1% Triton X-100 at pH 8. This value correlated against a standard, i.e., an aqueous solution containing cutinase but no protease. Diminishment in the enzymatic activity of the cutinase in the test solutions as compared to the standard is attributed to degradation of the cutinase by the protease.

[3] = Cutinase activity after 28 minutes with proteases, pH stat hydrolysis of trioctanoin; conditions: 2 μg/ml cutinase, pH 10, 37° C.
Description: B. In part B of this example, the cutinase employed was the same as in part A above whereas the protease employed was either Alcalase™ (an alkaline protease available from Novo Industries, Copenhagen, Denmark), a mixture of Alcalase™ and Savinase™ (an alkaline protease available from Novo Industries, Copenhagen, Denmark), or a mixture of Savinase™ and Esperase™ (a protease available from Novo Industries, Copenhagen, Denmark).
In this example, aqueous test solutions containing cutinase contained 2 μg/ml of cutinase and the amount of protease specified in Table 2 below. The solutions were incubated at 37° C. for 28 minutes at pH 10 and the enzymatic activity of cutinase was periodically measured in a pH stat by the hydrolysis of trioctanoin in a 0.5 percent trioctanoin and a 0.05 percent sodium dodecyl sulfate emulsion. The measured value was correlated against a standard, i.e., an aqueous solution containing cutinase but no protease. Diminishment in the enzymatic activity of the cutinase in the test solutions as compared to the standard is attributed to degradation of the cutinase by the protease.

[4] = pH stability of bacterial cutinase, half-life at 50° C., hydrolysis of trioctanoin in polyvinyl alcohol emulsions
Description: In this example the half-life of the same cutinase used in Example 1 above was measured at 50° C. at various pHs. Specifically, cutinase was introduced into a 0.1M sodium phosphate buffer at the pH specified below and the activity was measured by hydrolysis of trioctanoin in polyvinyl alcohol emulsions. The time required for the activity to diminish to 1/2 of its initial value is taken as the half-life at that particular pH.

[5] = Stability of cutinase to oxidants (hydrogen peroxide); conditions: for Percent Cutinase Activity: pH 8.4, 25° C., two hours
Description: Specifically, in this example, an aqueous solution of 0.5 mg/ml of cutinase (isolated in a substantially pure form from P. mendocina, ATCC 53552, described in U.S. Ser. No. 932,959 filed Nov. 19, 1986 and incorporated herein by reference) containing 0.1M sodium phosphate buffer was incubated in varying amounts of hydrogen peroxide wherein the aqueous solution was maintained at pH 8.4 and at 25° C. for two hours. The enzymatic activity of the cutinase under the above conditions and in the absence of hydrogen peroxide is arbitrarily assigned a value of 100% and enzymatic activity of the other test solutions are reported as a percentage of the standard.

[6] = Removal of cutin-like stains from an insoluble support matrix, 3H-triolein hydrolysis; conditions: polyester swatches, 1 percent BSA
Description: The substrate was prepared by diluting 1 mCi of ^3 H-Triolein (0.5 mCi/ml, […]) into 17 ml isopropanol containing 421 mg of non-^3 H-Triolein. The final concentration was about 23-24 mg Triolein/ml. This was divided into 1 ml aliquots and stored.
Polyester cloth swatches cut into approximately 1/2 inch×1/2 inch squares were laid onto a glass plate. 3 μl of the above mixture was pipetted onto each swatch and allowed to air dry.
A solution comprising 1 percent fatty acid free bovine serum albumin (BSA), and 100 mM of a suitable buffer, preferably Tris (pH range 6 to 9) or glycine (pH range 8 to 11) was allowed to equilibrate to a fixed temperature (preferably 32° C.) in a shaking water bath. An aliquot of cutinase (0.25 to 1.5 μg/ml) was then added to 2.8 ml of the BSA solution, followed by the insertion of four of the cloth swatches, taking care to keep the swatches as separate as possible. The cutinase added was isolated from Fusarium solani pisi, Colletotrichum capsici, Pseudomonas mendocina or Pestalotia subcuticularia. The entire mixture was then allowed to shake in the constant temperature bath at 150 rpm for 15 minutes.
An aliquot of the liquor, preferably 20% of the entire volume was pipetted into a scintillation vial containing 10 ml of Ecolume™ scintillation fluid. After chilling, the scintillation vials were counted. […]

[7] = Cutinase activity against pH (FIG. 1)

CCCCCCCCCCCCOS(=O)(=O)[O-].[Na+] [sodium dodecyl sulfate, reference compound]
Compatibility of surfactant with the cutinase [1]: is not

octoxynol [Triton X-100, reference compound]
Compatibility of surfactant with the cutinase [1]: compatible with the cutinase

B1: cutinase: cutinase isolated in a substantially pure form from Pseudomonas mendocina ATCC 53552, amino acid sequence of SEQ ID NO:1 (protein)
chain: APLPDTPGAPFPAVANFDRSGPYTTSSQSEGPSCRIYRPRNLGQGGVRHPVILWGNGTGAGPSTYAGLLSHWASHGFVVAAAETSNAGTGREMLACLDYLVRENDTPYGTYSGKLNTGRVGTSGHSQGGGGSIMAGQDTRVRTTAPIQPYTLGLGHDSASQRRQQGPMFLMSGGGDTIAFPYLNAQPVYRRANVPVFWGERRYVSHFEPVGSGGAYRGPSTAWFRFQLMDDQDARATFYGAQCSLCTSLLWSVERRGL
Cutinase activity after time ([2]; Esperase 64 μg/ml, 0 min): 1.73 absorbance change at 410 nm | Cutinase activity after time ([2]; Esperase 64 μg/ml, 5 min): 1.64 absorbance change at 410 nm | Cutinase activity after time ([2]; Esperase 64 μg/ml, 10 min): 1.59 absorbance change at 410 nm | Cutinase activity after time ([2]; Esperase 64 μg/ml, 15 min): 1.51 absorbance change at 410 nm | Cutinase activity after time ([2]; Esperase 64 μg/ml, 840 min): 0.456 absorbance change at 410 nm | Cutinase activity after time ([2]; Maxacal 35 μg/ml, 0 min): 1.68 absorbance change at 410 nm | Cutinase activity after time ([2]; Maxacal 35 μg/ml, 5 min): 1.58 absorbance change at 410 nm | Cutinase activity after time ([2]; Maxacal 35 μg/ml, 10 min): 1.72 absorbance change at 410 nm | Cutinase activity after time ([2]; Maxacal 35 μg/ml, 15 min): 1.66 absorbance change at 410 nm | Cutinase activity after time ([2]; Maxacal 35 μg/ml, 840 min): 0.134 absorbance change at 410 nm | Cutinase activity after time ([2]; Standard, no protease, 0 min, 42 μg/ml cutinase): 1.57 absorbance change at 410 nm | Cutinase activity after time ([2]; Standard, no protease, 5 min): 1.60 absorbance change at 410 nm | Cutinase activity after time ([2]; Standard, no protease, 10 min): 1.47 absorbance change at 410 nm | Cutinase activity after time ([2]; Standard, no protease, 15 min): 1.63 absorbance change at 410 nm | Cutinase activity after time ([2]; Standard, no protease, 840 min): 1.61 absorbance change at 410 nm | Stability in aqueous solution in the presence of a protease ([2]; results from A and B of Example 1, periods of time commonly encountered in cleaning use): stable | Cutinase activity in the aqueous solution after 28 minutes ([3]; Alcalase 34.7 μg/ml): 420.3 units of octanoic acid released | Cutinase activity in the aqueous solution after 28 minutes ([3]; Alcalase/Savinase 17.7/20.0 μg/ml): 428.0 units of octanoic acid released | Cutinase activity in the aqueous solution after 28 minutes ([3]; Esperase/Savinase 15.0/13.0 μg/ml): 411.0 units of octanoic acid released | Cutinase activity in the aqueous solution after 28 minutes ([3]; no protease): 417.8 units of octanoic acid released | Stability of cutinase activity at pH ([4]; neutral and alkaline pHs, 50° C.): sufficiently stable | Half-life at 50° C. ([4]; pH 7, 0.1M sodium phosphate buffer): 30 h | Half-life at 50° C. ([4]; pH 8, 0.1M sodium phosphate buffer): 25 h | Half-life at 50° C. ([4]; pH 9, 0.1M sodium phosphate buffer): 12 h | Half-life at 50° C. ([4]; pH 10, 0.1M sodium phosphate buffer): 0.3 h | Percent Activity ([1]; Triton X-100 0, SDS 0 weight percent (standard assigned 100), pH 8.0, 25° C.): 100% | Percent Activity ([1]; Triton X-100 0, SDS 0.05 weight percent): 30% | Percent Activity ([1]; Triton X-100 0, SDS 0.1 weight percent): 23% | Percent Activity ([1]; Triton X-100 0, SDS 0.2 weight percent): 14% | Percent Activity ([1]; Triton X-100 0, SDS 0.4 weight percent): 6% | Percent Activity ([1]; Triton X-100 0.05, SDS 0.05 weight percent): 132% | Percent Activity ([1]; Triton X-100 0.1, SDS 0.1 weight percent): 130% | Percent Activity ([1]; Triton X-100 0.2, SDS 0 weight percent): 78% | Percent Activity ([1]; Triton X-100 0.2, SDS 0.05 weight percent): 125% | Percent Activity ([1]; Triton X-100 0.2, SDS 0.1 weight percent): 138% | Percent Activity ([1]; Triton X-100 0.2, SDS 0.2 weight percent): 98% | Percent Activity ([1]; Triton X-100 0.4, SDS 0 weight percent): 60% | Percent Activity ([1]; Triton X-100 0.4, SDS 0.4 weight percent): 78% | Stability of cutinase activity in the presence of an oxidant ([5]; hydrogen peroxide): sufficiently stable | Percent Cutinase Activity ([5]; hydrogen peroxide 0 ppm (standard assigned 100%)): 100% | Percent Cutinase Activity ([5]; hydrogen peroxide 100 ppm): 86% | Percent Cutinase Activity ([5]; hydrogen peroxide 200 ppm): 86% | Percent Cutinase Activity ([5]; hydrogen peroxide 500 ppm): 91% | Percent Cutinase Activity ([5]; hydrogen peroxide 1000 ppm): 95% | Sp. activity triolein hydrolysis [6]: 157,045 cnts./10 min./μg enzyme | Triolein hydrolysis ([6]; cutinase 0.25 to 1.5 μg/ml): 9,250 cnts./10 min. | pH at which cutinase activity reaches a maximum ([7]; FIG. 1): 7 | Share of maximum activity maintained ([7]; up to pH 11, FIG. 1): ≥ 80%
